Measurements: publication PMC8514121 (Science signaling, 2020)
Where a chain is given by its changes, count along the chain named. Names and notes keep the numbering of the source.

T1: Aurora A kinase domain (residues 116 to 389) (human, UniProt O14965 116-389)
T1 sequence (looked up): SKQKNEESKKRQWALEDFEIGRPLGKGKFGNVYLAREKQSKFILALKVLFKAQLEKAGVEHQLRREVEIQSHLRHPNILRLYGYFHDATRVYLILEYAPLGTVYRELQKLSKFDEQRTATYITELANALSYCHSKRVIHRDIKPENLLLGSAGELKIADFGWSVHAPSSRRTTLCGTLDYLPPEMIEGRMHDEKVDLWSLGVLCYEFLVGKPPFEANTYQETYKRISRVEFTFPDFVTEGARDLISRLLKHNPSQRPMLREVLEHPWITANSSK

B1: TPX2 fragment (residues 7 to 20) (domain or fragment, UniProt Q9ULW0 7-20, looked up)
chain: SYSYDAPSDFINFS
B2: CoAlated unphosphorylated C247V + C319V t-Aurora A (domain or fragment, UniProt Q9ULW0 7-20, looked up)
chain: SYSYDAPSDFINFSSKQKNEESKKRQWALEDFEIGRPLGKGKFGNVYLAREKQSKFILALKVLFKAQLEKAGVEHQLRREVEIQSHLRHPNILRLYGYFHDATRVYLILEYAPLGTVYRELQKLSKFDEQRTATYITELANALSYVHSKRVIHRDIKPENLLLGSAGELKIADFGWSVHAPSSRRTTLCGTLDYLPPEMIEGRMHDEKVDLWSLGVLVYEFLVGKPPFEANTYQETYKRISRVEFTFPDFVTEGARDLISRLLKHNPSQRPMLREVLEHPWITANSSK
modifications: coenzyme A disulfide adduct (CoAlation) on Cys290 on approximately two thirds of the protein; unphosphorylated
B3: t-Aurora A C247V + D256N + C319V kinase-dead mutant (Cys290-Cys290 disulfide homodimer) (domain or fragment, UniProt Q9ULW0 7-20, looked up)
chain: B2 chain with D155N
modifications: disulfide bond between Cys290 of the two monomers
B4: t-Aurora A C247V + C319V double mutant, unphosphorylated, catalytically active (used for the disulfide homodimer) (domain or fragment, UniProt Q9ULW0 7-20, looked up)
chain: B2 chain

Assays:
[1] = molecular target: T1, Aurora A kinase domain (residues 116 to …); assay: crystal structure
crystal structure = molecular target: the molecule itself; assay: crystal structure
cross-linking = molecular target: the molecule itself; assay: cross-linking

Binder | binding result (crystal structure) | further results
B1 |  | binding result [1]: binds
B2 | binds | 
B3 | binds | 
B4 |  | binding result (cross-linking): binds
